Reference: the nanobody polyreactivity screen of Harvey et al. (2022)

Assay: yeast display, Sf9 membrane polyspecificity reagent, FACS + sequencing; frameworks hold sequencing errors
Outline: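 A nanobody's polyreactivity label depends on the gate it was sorted from. Yeast display cells were stained with 10% biotinylated, detergent-solubilized Sf9 membrane reagent for 1 hour at 4 °C, enriched on streptavidin microbeads and sorted by FACS. The low and high (top ~1%) gates were set on anti-HA fluorescence for expression and streptavidin fluorescence for reagent binding.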

| Sequence | polyreactivity (PSR sort gate) |
| --- | --- |
| QVQLVESGGGLVQAGGSLRLSCAASGSTFTTHVMGWYRQAPGKERELVAAISWSSGSTYYADSVKGRFTISRDNEKNTVYLQMNSLKPEDTAVYYCDARLVIFYPYSRYYFWGQGTQVTVSS | high polyreactivity |
| QVQLVESVGGLLQAGGSLRLSCAASGSIFFVYTMGWYRQAPGKERELFATITDSDGGTYYADSVKGRFTISRDNAKNTVYVQMNSLKPEDTAVYYCAAEVEVYFAIYEYWGQGTQVTVSS | low polyreactivity |
| QVQLVESGGRLVQAGGSLRLSCAASGRIFVVNAMGWYRQAPGKEREFVAAITDNTGSTYYADSVKGRFTISRDNAKNTGYLQMNSLNPEDTAVYYCAAYGYSKDLWNFYYWGQGTQVTVSS | low polyreactivity |
| QVQLVESGGGLVQAGGSLRLSCAASGSTFFSYAMGWYRQAPGKERELVAAISWIDDGTYYADSVKGRFTISRDNAKNTVYLQMNSLKPEDTAVYYCAADIGAYRTWDYEYWGQGTQVTVSS | low polyreactivity |
| QVQLVESGGGLVHAGGSLSLSCAASGPIFGSYGMGWYRQAPGKERELVAAISYSGGRTFYADSVKGRFTISRDNAKNNVYLQMNSLKPEDTAVYYCNKRYIPSYMSHLDYWGQGTQVTVSS | high polyreactivity |
| QVQLVESGGGLVQAGGSLRLSCAASGRLCGIYTMGWYRQAPGKERELVAAISKRGSSTSYADSVKGRFTISRDNAKNTVYLQMNSQKPEDTAVYYCAARYGYSYRYSGFDYWGQGTQVTVSS | high polyreactivity |
| QVQLVGSGGGLVQAGGSLRLSCAASGLTFNWYAMGWYRQAPGKERELVASVSKRGGSTYYADSVKGRFTISRDNAKNNVYLQMNSLKPEDTAVYYCAASRYPSYDYWGQGTQVTVSS | high polyreactivity |
| QVQLVESGGGLVQAGGSLRLSCAASGRTFNWYAMGWYRQAPGKERELVAAISYSGGGTYYADSVKGRFTISRDNAKNTVYLQMNSLKPEDTAVYYCAAETYYAPYVYWGQGTQVTVSS | high polyreactivity |
| QVQLVESGGGLVQAGGSLRLSCAASGRIFYVNTMGWYRPAPGKERELVATITWGGDSTYYADSVKGRFTISRDNAKNTVYLQMNSLKPEDTAVYYCAADHHDIRLNTRRNDYRGQGTQVTVSS | low polyreactivity |
| QDQLVESGGGLVQAGGRLRLSCAASGRTFSSYAMGWYRQAPGKERELVAAISRRGSSTFYADSVKGRFTISRDNAKNTVYLQMNSLKPEDTAVYYCNADLSGQTRYDYWVQGTQVTVSS | high polyreactivity |
| QVQLVESGGGLVQAGGSLRLSCAASGIIIDNYTMGWYRQAPGKEREFVAAINKSGGSTYADSVKGRFTISRDNAKNTVYLQMNSLKPEDTAVYYCAAEVDYSYWPEYARKYYYWGQGTQVTVSS | low polyreactivity |
| QVQLVESGGGLVQAGGSLSLSCAASGFTYRLYTMGWYRQAPGKERELVAGISTSGGSTYYADSVKGRFTISRDNAKHTVYLQMNSLKPEDTAVYYCAAQAFTSYDYWGQGTQVTVSS | high polyreactivity |
| QVQLVESGGGLVQAGGSLRLSCAASGLIFIKYTMGWYRQAPGKERELVAVISGSGGSTYYADSVKGRFTISRDNAKNTVYLQMNSLKPEDTAVYYCAARSYALGYGGGYWGQGTQVTVSS | high polyreactivity |
| QVQLVESGGGFVQAGGSLRLSSAASGINFYRKTMGWYRQAPGKERELVASISRGGSTYYADSVKGRFTISRDNAKNTVYLQMNILKPEDTAVYYCSTSGQQYYSRNFDYWGQGTQVTVSS | low polyreactivity |
| QVQLVESGGCLVQAGVSLRLSCAASGRIFAYYAMGWYRQAPRKERELVAAISRSGVSTYYADSVKGRFTISRDNAKNTVYIQMNSLKPEDTAVYYCAARWRSGFTSGDYWGQGTQVTVSS | low polyreactivity |
| QVQLVESGGGLVQAGGSLRLSCAASGSTIGGYAMGWYRQAPGKERELVAAITRSGGRTYYADSVKGRFTISRDNAKKTVYLQMNSLKPEDTAVYFCATLVTNARYDSWGQGTQVTVSS | high polyreactivity |
| QVHLVESGGGLVQAGGSLRLSCAASGFTLYYYMGWYRQAPGKERELVAGISNSGSTSYADSVKGRFTISRDNAKNTVYLQMNSLKPEDTAVYYCNAYYPAWYLDRYYYWGQGTQVTVSS | high polyreactivity |
| QVQLVESGGGLVQAGGSLRLSCAASGLIFYRYTMGWYRQAPGKERELVAAISWSGGRTYYADSVKGRFTISRDNAKNTVYLQMNSLKPEDTAVYYCNAVYYYTRASVPYDYWGQGTQVTVSS | high polyreactivity |
| QVQLVESGGGLVQAGGSLRLSSAASGFILNRNAMGWYRQAPGKVRELVAAISKSGGSTYYADSVKGRFTISRDNAKNTVYLQMNRLKPEDTAVYYCAAYTYLGRYEARRDYWGQGTQVTVSS | high polyreactivity |
| QVQLVESGGGLVQAGGSLRLSCAASGRTYYHYTMGWYRQAPGKERDLVAAITSGGSTYYADSVKGRFTMSRDNAKITVYVQMNSLKPEDTAVYYCARVRPLYHYSRYDYWGQGTQVTVSS | high polyreactivity |
| QVQLVESGGGLVQAGGRLRLSCAASGSIFLHNAMGWYRQAPGKERELVAAISGTGGRTYYADSVKGRFTISRDNAKNTVYLQMNSLKPEDTAVYYCAVVFYHRHSYYWGQGTQVTVSS | high polyreactivity |
| QVQLVESGGGLDQAGGSLRLSCAASGRTFPYYAMGWYRQAPGKERELVAAISSSGGRTYYADSVKGRFTISRDNAKNTVYLQMNSLKPEDTAVYYCNVDAWYPYQGFLVGYYYWGQGTQVTVSS | low polyreactivity |
| QVQLVESGGGLVQAGGSLRLSCAASGRTFDVYAMGWYRQAPGKERELVAAITSGGSTYYADSVKGRFTISRDNAKNTVYLQMNSLKPEDTAVYYCATDVDKSLYDYWGQGTQVTVSS | low polyreactivity |
| QVQLVESGGGLVQAGGSLRLSCAASGSTFLDYAMGWYRQAPGKDRELVAAISTDDSSTYYADSVKGRFTISRDNAKNTVYLQMNSLKPEDTAVYYCAADDRDWVNFDYWGQGTQVTVSS | low polyreactivity |
| QVQLVESGGGLVQAGGSLRLICAASGRTLRRYAMGWYRQAPGKERELVAAISRSGSSTYADSVKGRFTISRDNAKNTVYLQMHSLKPEDTAVYYCNAYQPRYGYWGQGTQVTVSS | high polyreactivity |
| QVQHVESGGGLVQAGGSLRLSCAASGITFSYYAMGWYIQAPGKEREFVAAISWSGGSTYYADSVKGRFTISRDNAKNTVYLQMNSLKPEVTAVYYCAADRYPYGLDYWGQGTQVTVSS | high polyreactivity |
| QDQLVDSGGGLVQAGGSLRLSCAATGRSFRRYFMGWYIPAPGKERELVAAISYSGATTYYADSVKGRFTISRDYAKNNVYLQMNSLKKEDTAVYYFAATAPGDRYYWGQGTQVTVSS | high polyreactivity |
| QVQLVESGGGLVQAGGSLRLSCAASGSIIDTYAMGWYRQAPGKERELVASWSGGSTYYADSVKGRFTISRDNAKNTVYLQMNSLKPEDTAVYYCAKDYYVQPPGTRDDYWGQGTQVTVSS | low polyreactivity |
| QVQLVESGGGLVQAGGSLRLSCAASGFTFWQYAMGWYRQAPGKERELVAAISGSGSSTYYADSVKGRFTISRDNAKNTVYFQMNSLKPEDTAVYYCATAISRYGRYYYWGQGTQVTVSS | high polyreactivity |
| QVQLVESGGGLVQAGGSLRLSCAASGSIFAGNTMGWYRQAPGKERELVARMTRAGSTYYADSVKGRFTITRDNAKNTVYLQMNSLKPEDTAVYYCASGPTGSLYRYYYWGQGSQVTVSS | high polyreactivity |
